From PMC12124358 (Science Advances, 2025) come the findings set out here.

The assay addresses Clr4 lysine methyltransferase (KMT) domain (residues 192 to 490) (S. pombe, UniProt O60016 192-490). In words: ITC.

Chain of Clr4 lysine methyltransferase (KMT) domain (residues 192 to 490) (O60016 192-490): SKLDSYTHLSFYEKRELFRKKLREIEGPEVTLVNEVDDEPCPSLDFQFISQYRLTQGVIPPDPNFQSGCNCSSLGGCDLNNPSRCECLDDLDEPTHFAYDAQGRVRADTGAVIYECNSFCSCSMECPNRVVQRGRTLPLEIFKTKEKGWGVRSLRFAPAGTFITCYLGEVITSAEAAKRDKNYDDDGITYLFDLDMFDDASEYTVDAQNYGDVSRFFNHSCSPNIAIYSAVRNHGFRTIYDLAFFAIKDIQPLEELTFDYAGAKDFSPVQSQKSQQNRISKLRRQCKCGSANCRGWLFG

B1: H3(1–20)_([change])-Ub_([change]), disulfide bond-linked ubiquitinated H3 tail (other)
chain 1: ARTKQTARKSTGGCAPRKQL
chain 2: […]
As a reminder, the Kd is a measure of binding affinity in units of concentration. A high value points to a looser complex. For B1, the affinity, expressed as Kd, was 133 ± 13 µM.
